Results taken from patent US20210063414A1, “METHODS FOR PREVENTING AND/OR TREATING BONE LOSS CONDITIONS BY MODULATING IRISIN” (Dana-Farber Cancer Institute, Inc., priority 2018, published 2021).

Experiments:
Assay in all cases: Crosslinking/co-immunoprecipitation/mass spectrometry (TMT quantitative proteomics) to identify irisin receptors
Type in all cases: binding
[1] = target: T1, MLO-Y4 cell surface proteins (Mus musculus, UniProt P09671); settings: co-precipitated protein Sod2 (SODM_MOUSE)
T1 construct: endogenous in cells; host or cells: MLO-Y4
T1 sequence (P09671 25-222): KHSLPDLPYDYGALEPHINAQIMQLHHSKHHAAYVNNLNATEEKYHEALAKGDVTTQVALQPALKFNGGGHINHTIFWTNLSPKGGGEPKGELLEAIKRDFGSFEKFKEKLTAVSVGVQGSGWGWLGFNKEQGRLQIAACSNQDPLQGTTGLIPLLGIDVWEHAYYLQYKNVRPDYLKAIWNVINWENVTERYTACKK
In short: (§1)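 Relative protein abundance came from 6-plex TMT MS3 quantitation on an Orbitrap Fusion Lumos, after in-gel trypsin digestion of Coomassie-stained SDS-PAGE lanes. Input was a Ni-NTA pulldown (250 mM imidazole elution) of lysates from murine MLO-Y4 cells. These cells were treated on ice with His-tagged irisin or adipsin (10 nM, 20 min) in serum-free medium, then crosslinked with 1.5 mM DTSSP for 30 min.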

[2] = target: T2, MLO-Y4 cell surface proteins (Mus musculus, UniProt P55292); settings: co-precipitated protein Dsc2 (DSC2_MOUSE)
T2 construct: endogenous in cells; host or cells: MLO-Y4
T2 sequence (P55292 136-902): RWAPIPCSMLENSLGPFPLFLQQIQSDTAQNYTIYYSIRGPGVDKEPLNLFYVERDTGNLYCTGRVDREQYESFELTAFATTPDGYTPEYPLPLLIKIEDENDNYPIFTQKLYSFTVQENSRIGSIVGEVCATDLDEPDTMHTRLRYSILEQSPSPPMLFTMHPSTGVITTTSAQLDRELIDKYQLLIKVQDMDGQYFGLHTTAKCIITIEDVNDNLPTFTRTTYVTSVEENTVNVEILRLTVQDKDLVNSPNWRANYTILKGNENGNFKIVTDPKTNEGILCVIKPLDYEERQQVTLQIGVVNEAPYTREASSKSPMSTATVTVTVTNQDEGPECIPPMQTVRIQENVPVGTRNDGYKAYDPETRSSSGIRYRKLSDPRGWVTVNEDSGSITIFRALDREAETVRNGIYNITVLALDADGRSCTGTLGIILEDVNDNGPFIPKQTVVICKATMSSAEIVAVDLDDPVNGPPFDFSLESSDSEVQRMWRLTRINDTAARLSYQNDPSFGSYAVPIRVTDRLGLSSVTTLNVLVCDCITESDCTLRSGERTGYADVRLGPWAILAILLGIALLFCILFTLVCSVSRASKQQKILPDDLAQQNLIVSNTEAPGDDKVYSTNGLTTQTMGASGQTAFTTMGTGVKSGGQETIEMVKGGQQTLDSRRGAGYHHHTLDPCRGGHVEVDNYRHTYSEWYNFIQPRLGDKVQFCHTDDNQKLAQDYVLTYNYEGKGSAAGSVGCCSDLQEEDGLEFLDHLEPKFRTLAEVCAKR
In short: as §1

[3] = target: T3, MLO-Y4 cell surface proteins (Mus musculus, UniProt P62737); settings: co-precipitated protein Acta2 (ACTA_MOUSE)
T3 construct: endogenous in cells; host or cells: MLO-Y4
In short: as §1

[4] = target: T4, MLO-Y4 cell surface proteins (Mus musculus, UniProt O70404); settings: co-precipitated protein Vamp8 (VAMP8_MOUSE)
T4 construct: endogenous in cells; host or cells: MLO-Y4
T4 sequence (O70404 1-101): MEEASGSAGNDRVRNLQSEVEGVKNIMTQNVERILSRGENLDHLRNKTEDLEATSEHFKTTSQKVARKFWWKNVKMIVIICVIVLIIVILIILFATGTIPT
In short: as §1

A TMT signal-to-noise ratio [1] of 1031.93, a TMT signal-to-noise ratio [2] of 93.7977 and a TMT signal-to-noise ratio [3] of 361.157 were found for adipsin in this work. The TMT signal-to-noise ratio [4] was 300.176.
